± gives the uncertainty stated by the source.
Assay: protein stability index of a GFP-peptide fusion (yeast GPS) (PSI 1-4); higher = more stable; sorted into four equal gates, so the index is relative within each strain
Summary of the method: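 The protein stability index of a peptide was calculated by multiplying its read frequency in each gate by that gate's number and adding the products. The peptides were tiled 17-residue stretches of yeast proteins, fused downstream of GFP on a Cherry-expressing plasmid and carried in yeast as a pooled library. Mid-log cultures in leucine-free medium were sorted into four equal gates by GFP/Cherry ratio, and each gate's plasmids were PCR-amplified and Illumina-sequenced.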

Sequence | protein stability index (doa10∆) | protein stability index (pdr5∆) | protein stability index (san1∆) | protein stability index (ubr1∆)
KINDESSIDKKSSILTV [YML103C/NUP188] | 2.35 ± 0.062 | 2.68 ± 0.067 | 2.56 ± 0.059 | 2.52 ± 0.056
IDHINEESWEKVVEFAI [SCL1] | 2.78 ± 0.07 | 3.08 ± 0.082 | 3.03 ± 0.068 | 2.91 ± 0.06
QFEWHQNSLLTNTHPNF [SNF2] | 2.87 ± 0.063 | 2.88 ± 0.08 | 3.09 ± 0.066 | 2.99 ± 0.047
LETLEHNGAPHHAIEEA [RPO21] | 3.34 ± 0.12 | 3.01 ± 0.1 | 2.94 ± 0.09 | 2.95 ± 0.19
IPGEYITYALSGYVRSR [RPS21B] | 2.42 ± 0.059 | 2.73 ± 0.095 | 2.39 ± 0.093 | 2.77 ± 0.047
VFSHAQTAVTCESCSTI [RPS27A] | 1.47 ± 0.091 | 1.2 ± 0.076 | 1.16 ± 0.13 | 1.51 ± 0.076
DLLVIDSHKRIPDMSKN [SNU114] | 2.99 ± 0.073 | 3.09 ± 0.073 | 2.93 ± 0.053 | 3.24 ± 0.056
HSVQETNKISPKDFSPN [SSN2] | 3.37 ± 0.094 | 2.68 ± 0.078 | 2.93 ± 0.054 | 3.11 ± 0.07
VNGLLQVLMDINTLNGG [GAL11] | 2.98 ± 0.079 | 3.03 ± 0.077 | 3 ± 0.075 | 2.91 ± 0.036
PSTGSNLQQQQQQQIQV [YGR119C/NUP57] |  | 2.55 ± 0.19 |  | 
KPGSIDAISQVINIAKA [FAS1] | 2.14 ± 0.052 | 2.87 ± 0.061 | 2.61 ± 0.069 | 2.95 ± 0.033
ELMRIISRNGDTSYKID [SMC1] | 2.83 ± 0.087 | 3.08 ± 0.063 | 2.99 ± 0.072 | 2.95 ± 0.058
WNLEKWREIIEKVRDYE [IRR1] | 3.06 ± 0.12 | 3.41 ± 0.15 | 3.3 ± 0.054 | 3.19 ± 0.066
QLSQDEHSQVEQTCVKL [SRP72] | 3.17 ± 0.16 | 3.24 ± 0.064 | 3.1 ± 0.094 | 3.25 ± 0.084
TDEHLIFNSGKMIILDK [ISW2] | 3 ± 0.24 | 2.74 ± 0.074 | 2.35 ± 0.1 | 2.59 ± 0.058
HGKRRSQVVETHKVTDI [YMR129W/POM152] | 3.35 ± 0.13 | 3.01 ± 0.13 | 3.18 ± 0.064 | 3.2 ± 0.058
LKENEENEDGNIEERKE [BRR2] |  | 3.56 ± 0.27 | 3.13 ± 0.098 | 
EAVELVIGLDSEHDKKR [YML103C/NUP188] | 2.74 ± 0.2 | 3.55 ± 0.15 | 3.16 ± 0.18 | 3.37 ± 0.047
SHEERIEAIDEYNKPNS [ISW2] | 2.01 ± 0.063 | 2.12 ± 0.054 | 1.84 ± 0.076 | 2.94 ± 0.039
DNDIMNLGSRTKNNTQA [SSN3] | 2.91 ± 0.038 | 2.92 ± 0.038 | 2.76 ± 0.028 | 2.977 ± 0.029
